In PMC1616947 (Nucleic Acids Research, 2006):

Molecular target: the molecule itself
Experiment: SEC + AUC

B1: MutLΔC20 deletion mutant (domain or fragment, Escherichia coli, UniProt P23367 1-595, looked up)
chain: MPIQVLPPQLANQIAAGEVVERPASVVKELVENSLDAGATRIDIDIERGGAKLIRIRDNGCGIKKDELALALARHATSKIASLDDLEAIISLGFRGEALASISSVSRLTLTSRTAEQQEAWQAYAEGRDMNVTVKPAAHPVGTTLEVLDLFYNTPARRKFLRTEKTEFNHIDEIIRRIALARFDVTINLSHNGKIVRQYRAVPEGGQKERRLGAICGTAFLEQALAIEWQHGDLTLRGWVADPNHTTPALAEIQYCYVNGRMMRDRLINHAIRQACEDKLGADQQPAFVLYLEIDPHQVDVNVHPAKHEVRFHQSRLVHDFIYQGVLSVLQQQLETPLPLDDEPQPAPRSIPENRVAAGRNHFAEPAAREPVAPRYTPAPASGSRPAAPWPNAQPGYQKQQGEVYRQLLQTPAPMQKLKAPEPQEPALAANSQSFGRVLTIVHSDCALLERDGNISLLSLPVAERWLRQAQLTPGEAPVCAQPLLIPLRLKVSAEEKSALEKAQSALAELGIDFQSDAQHVTIRAVPLPLRQQNLQILIPELIGYLAKQSVFEPGNIAQWIARNLMSEHAQWSMAQAITLLADVERLCPQLVKTP
B1 was tested, and the “stoichiometry N” value was 2.
